Source: patent US20210087286A1 (Amgen, published 2021)

T1: huGIPR ECD (human, UniProt P48546 21-129, limits assumed)
T1 construct: Soluble analyte of the Biacore assay; also called human GIPR extracellular domain
T1 sequence: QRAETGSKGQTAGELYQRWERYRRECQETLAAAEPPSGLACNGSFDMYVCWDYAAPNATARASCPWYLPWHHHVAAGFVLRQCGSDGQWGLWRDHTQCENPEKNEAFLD

T2: human GIPR (human, UniProt P48546 22-466)
T2 sequence: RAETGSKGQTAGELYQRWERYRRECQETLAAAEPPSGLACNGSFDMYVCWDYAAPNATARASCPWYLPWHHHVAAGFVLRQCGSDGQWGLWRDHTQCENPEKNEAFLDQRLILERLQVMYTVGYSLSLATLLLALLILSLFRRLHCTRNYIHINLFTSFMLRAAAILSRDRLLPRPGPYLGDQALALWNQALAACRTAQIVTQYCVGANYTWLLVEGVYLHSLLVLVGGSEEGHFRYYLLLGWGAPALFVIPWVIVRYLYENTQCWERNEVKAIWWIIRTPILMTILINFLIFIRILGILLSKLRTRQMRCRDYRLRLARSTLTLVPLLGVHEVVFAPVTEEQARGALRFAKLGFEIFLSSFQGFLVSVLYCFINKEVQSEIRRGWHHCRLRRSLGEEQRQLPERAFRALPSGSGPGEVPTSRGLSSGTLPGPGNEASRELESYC

T3: murine GIPR (murine, UniProt Q0P543 19-460, limits assumed)
T3 sequence: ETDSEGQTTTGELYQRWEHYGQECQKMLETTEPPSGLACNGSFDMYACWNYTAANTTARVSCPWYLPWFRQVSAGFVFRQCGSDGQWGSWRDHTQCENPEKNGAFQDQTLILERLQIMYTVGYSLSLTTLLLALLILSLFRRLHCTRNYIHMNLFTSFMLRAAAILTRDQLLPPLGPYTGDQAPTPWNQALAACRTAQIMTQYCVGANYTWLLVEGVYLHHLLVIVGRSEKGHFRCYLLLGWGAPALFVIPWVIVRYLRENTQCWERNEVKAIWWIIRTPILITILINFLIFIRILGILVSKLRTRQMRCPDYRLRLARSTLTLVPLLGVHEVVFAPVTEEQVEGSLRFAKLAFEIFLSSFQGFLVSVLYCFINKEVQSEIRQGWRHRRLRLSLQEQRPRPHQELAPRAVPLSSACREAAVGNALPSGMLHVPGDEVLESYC


What was measured:
huGIPR ECD = molecular target: T1, huGIPR ECD; assay: SPR (Biacore T200), mAb captured via goat anti-huFc, 200 nM huGIPR ECD analyte
Procedure: Immobilization of Goat-anti-huFc antibody to a S-CM5 sensor chip surface was performed according to manufacturer's instructions. The Biacore instrument running buffer is 0.005% P20/PBS 1×, pH7.4, no calcium chloride, no magnesium chloride. Briefly, carboxyl groups on the sensor chip surfaces were activated by injecting 60 μL of a mixture containing 0.2 M N-ethyl-N′-(dimethylaminopropyl) carbodiimide (EDC) and 0.05 M N-hydroxysuccinimide (NHS). Goat-anti-huFc antibody was diluted in 10 mM sodium acetate, pH 4.0 at 20 μg/ml and injected over the activated chip surface at 30 uL/min for 6 minutes. Excess reactive groups on the surfaces were deactivated by injecting 60 μL of 1 M ethanolamine. Final immobilized level was ˜8000 resonance units (RU).
Binding assays were carried out on the immobilized goat anti-huFc antibody surface by Biacore T200. The experiment was performed at 25° C. The instrument running buffer was 0.005% P20/PBS. The goat anti-huFc capture antibody was covalently attached to the sensor chip surface via standard amine coupling to flow cells channel 1-4. The anti-huGIPR antibodies were diluted in sample buffer (0.1 mg/ml BSA, 0.005% P20, PBS) to ˜10 nM then captured to flow cells channel 2, 3, 4. Flow cell channel 1 was as a blank reference surface without injection of anti-huGIPR antibody. The captured antibody response range was ˜250 RU. Then 200 nM huGIPR ECD was injected over the goat anti-huFc antibody captured anti-huGIPR antibody surfaces at flow rate 50 ul/min for 3 minutes. After a 10 minutes dissociation, each surface was regenerated by injecting 10 mM Glycine, pH 1.5 for 30 seconds twice.

human GIPR [1] = molecular target: T2, human GIPR; assay: cell-based or functional assay
human GIPR [2] = molecular target: T2, human GIPR; assay: cell-based or functional assay; remark: listed apart in the source
murine GIPR = molecular target: T3, murine GIPR; assay: cell-based or functional assay

Row | Binder | koff (huGIPR ECD) | cAMP IC50 (human GIPR [1]) | human cAMP IC50 (human GIPR [2]) | murine cAMP (murine GIPR)
1 | 2G10.347 (antibody, human IgG1, kappa, N297G, V domains shown) VH: not shown VL: EIVMTQSPATLSVSPGERATLSCRASQSVSSNLAWYQQKPGQAPRLLIYGAATRATGIPARFSGSGSGTEFTLTISSLQSEDFAVYYCQQYNNWPLTFGGGTKVEIKR | 0.0001 s⁻¹ | 28.4 nM | – | –
2 | 2G10.610 (antibody, human IgG1, kappa, N297G, V domains shown, also called SS-26235) VH: not shown VL: EIVMTQSPATLSVSPGERATLSCRASQSVFTHLAWYQQKPGQAPRLLIYEAATRATGIPARVSGSGSGTEFTLTISSLQSEDFAVYYCQQYNNWPLTFGGGTKVEIKR | < 5e-05 s⁻¹ | 12.9 nM | – | –
3 | 2G10.348 (antibody, human IgG1, kappa, N297G, V domains shown) VH: not shown VL: EIVMTQSPATLSVSPGERATLSCRASQSVSSNLAWYQQKPGQAPRLLIYGAATRATGIPARFSGSGSGTEFTLTISSLQSEDFAVYYCQQYNNWPLTFGGGTKVEIKR | 0.0006 s⁻¹ | 42.8 nM | 53 nM | 14600 nM
4 | 2G10.607 (antibody, human IgG1, kappa, N297G, V domains shown, also called SS-26232) VH: not shown VL: EIVMTQSPATLSVSPGERATLSCRASQSVDRHLAWYQQKPGQAPRLLIYEAATRATGIPARVSGSGSGTEFTLTISSLQSEDFAVYYCQQYNQWPLTFGGGTKVEIKR | 6e-05 s⁻¹ | 19.4 nM | – | –
5 | 2G10.602 (antibody, human IgG1, kappa, N297G, V domains shown, also called SS-26227) VH: not shown VL: EIVMTQSPATLSVSPGERATLSCRASQSVFEHLAWYQQKPGQAPRLLIYEAATRATGIPARVSGSGSGTEFTLTISSLQSEDFAVYYCQQYNNWPLTFGGGTKVEIKR | < 5e-05 s⁻¹ | 16.8 nM | – | –
6 | 2G10.605 (antibody, human IgG1, kappa, N297G, V domains shown, also called SS-26230) VH: not shown VL: EIVMTQSPATLSVSPGERATLSCRASQSVDVNLAWYQQKPGQAPRLLIYNAATRATGIPARVSGSGSGTEFTLTISSLQSEDFAVYYCQQYQNWPLTFGGGTKVEIKR | 7e-05 s⁻¹ | 25.6 nM | – | –
7 | 2G10.609 (antibody, human IgG1, kappa, N297G, V domains shown, also called SS-26234) VH: not shown VL: EIVMTQSPATLSVSPGERATLSCRASQSVERHLAWYQQKPGQAPRLLIYEAATRATGIPARVSGSGSGTEFTLTISSLQSEDFAVYYCQQYQNWPLTFGGGTKVEIKR | 6e-05 s⁻¹ | 26.9 nM | – | –
8 | 2G10.603 (antibody, human IgG1, kappa, N297G, V domains shown, also called SS-26228) VH: not shown VL: EIVMTQSPATLSVSPGERATLSCRASQSVDRHLAWYQQKPGQAPRLLIYEAATRATGIPARVSGSGSGTEFTLTISSLQSEDFAVYYCQQYQNWPLTFGGGTKVEIKR | < 5e-05 s⁻¹ | 30.5 nM | – | –
9 | 2G10.604 (antibody, human IgG1, kappa, N297G, V domains shown, also called SS-26229) VH: not shown VL: EIVMTQSPATLSVSPGERATLSCRASQSVNRHLAWYQQKPGQAPRLLIYEAATRATGIPARVSGSGSGTEFTLTISSLQSEDFAVYYCQQYQNWPLTFGGGTKVEIKR | < 5e-05 s⁻¹ | 27.1 nM | – | –
10 | 2G10.601 (antibody, human IgG1, kappa, N297G, V domains shown, also called SS-26226) VH: not shown VL: EIVMTQSPATLSVSPGERATLSCRASQSVFSHLAWYQQKPGQAPRLLIYEAATRATGIPARVSGSGSGTEFTLTISSLQSEDFAVYYCQQYQNWPLTFGGGTKVEIKR | 6e-05 s⁻¹ | 21.4 nM | – | –
11 | 2G10.606 (antibody, human IgG1, kappa, N297G, V domains shown, also called SS-26231) VH: not shown VL: EIVMTQSPATLSVSPGERATLSCRASQSVLTHLAWYQQKPGQAPRLLIYEAATRATGIPARVSGSGSGTEFTLTISSLQSEDFAVYYCQQYQNWPLTFGGGTKVEIKR | < 5e-05 s⁻¹ | 20.4 nM | – | –
12 | 2G10.608 (antibody, human IgG1, kappa, N297G, V domains shown, also called SS-26233) VH: not shown VL: EIVMTQSPATLSVSPGERATLSCRASQSVFSHLAWYQQKPGQAPRLLIYEAATRATGIPARVSGSGSGTEFTLTISSLQSEDFAVYYCQQYQQWPLTFGGGTKVEIKR | < 5e-05 s⁻¹ | 21.7 nM | – | –

The remaining lines, values ahead:

Row | koff (huGIPR ECD) | cAMP IC50 (human GIPR [1]) | human cAMP IC50 (human GIPR [2]) | murine cAMP (murine GIPR) | Binder
13 | – | – | 22.7 nM | 6.1 nM | iPS:529405 (antibody, human IgG1, kappa, N297G, V domains shown) VH: not shown VL: EIVLTQSPATLSLSPGERATLSCRASQSVFSHLAWYQQKPGQAPRLLIYEAATRATGIPDRFSGSGSGTEFTLTISRLEPEDFAVYYCQQYQNWPLTFGGGTKVEIKR
14 | – | – | 36.6 nM | 79.5 nM | iPS:529400 (antibody, human IgG1, kappa, N297G, V domains shown) VH: not shown VL: EIVLTQSPATLSLSPGERATLSCRASQSVSSNLAWYQQKPGQAPRLLIYGAATRATGIPDRFSGSGSGTEFTLTISRLEPEDFAVYYCQQYNNWPLTFGGGTKVEIKR
15 | – | – | 27.8 nM | 3.9 nM | iPS:529404 (antibody, human IgG1, kappa, N297G, V domains shown) VH: not shown VL: EIVLTQSPATLSLSPGERATLSCRASQSVNLNLAWYQQKPGQAPRLLIYQAATRATGIPDRFSGSGSGTEFTLTISRLEPEDFAVYYCQQYNQWPLTFGGGTKVEIKR
16 | – | – | 50 nM | 108 nM | iPS:529397 (antibody, human IgG1, kappa, N297G, V domains shown) VH: not shown VL: EIVLTQSPATLSLSPGERATLSCRASQSVSSNLAWYQQKPGQAPRLLIYGAATRATGIPDRFSGSGSGTEFTLTISRLEPEDFAVYYCQQYNNWPLTFGGGTKVEIKR
17 | – | – | 39.3 nM | 12.9 nM | iPS:529399 (antibody, human IgG1, kappa, N297G, V domains shown) VH: not shown VL: EIVLTQSPATLSLSPGERATLSCRASQSVSEHLAWYQQKPGQAPRLLIYEAATRATGIPDRFSGSGSGTEFTLTISRLEPEDFAVYYCQQYQNWPLTFGGGTKVEIKR
18 | – | – | 33.9 nM | 12 nM | iPS:529403 (antibody, human IgG1, kappa, N297G, V domains shown) VH: not shown VL: EIVLTQSPATLSLSPGERATLSCRASQSVDLHLAWYQQKPGQAPRLLIYEAATRATGIPDRFSGSGSGTEFTLTISRLEPEDFAVYYCQQYQNWPLTFGGGTKVEIKR
